Measured values taken from IntAct's records for PubMed 25042851.

B1: Ubiquitin-binding protein CUE5 (Saccharomyces cerevisiae), Q08412 (parent)
chain: MEEKEGIKDSSLLEKSNVPESINEDISKTTDVDLNSDGKKDNDTSAKDGTPKVEEKVNKSSGIDEDEVVTPAEDAKEEEEEHPPLPARRKSEEEPSKENPILQELKDAFPNLEEKYIKAVIIASQGVLSPAFNALLFLSDPESGKDIELPTQPVRKNPEAPARRRQTQLEQDELLARQLDEQFNSSHSRRRNRDRATRSMHEQRRRRHNPNEREQHHEDSEEEDSWSQFVEKDLPELTDRAGRSLQDTANKVSNWISDAYRRNFASGNEQNDNQHGHQDQQEWEPEIVDLSQGGKNSRPQQPERRRFNSFGVQVGDDSLESHGITLHNEDGFEDDEDVPPQLPTRTKSGESTGKVVAETTYIDTPDTETKKKWQPLPPEPLDTTPTKVNAVSRNKKNPDEDEFLINSDDEM
B2: Ubiquitin-binding protein CUE5 (Saccharomyces cerevisiae), Q08412 (parent)
chain: B1 chain
partner: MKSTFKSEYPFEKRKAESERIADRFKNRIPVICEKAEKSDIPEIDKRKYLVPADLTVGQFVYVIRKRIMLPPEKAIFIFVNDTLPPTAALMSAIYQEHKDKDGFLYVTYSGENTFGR

Variants of: B1
Details: with hd_human HTT

effect of a mutation on the interaction | Variant
disrupting interaction strength | L135A;L136A

Variants of: B2
Details: with atg8_yeast ATG8, P38182

effect of a mutation on the interaction | Variant
decreasing interaction strength | L376A
disrupting interaction strength | W373A;Q374A;P375A;L376A
decreasing interaction strength | W373A
